Assays:
[1] = target: Calmodulin labeled with Cyanine5 (not stated (human brain CaM or recombinant bovine CaM bought)); experiment: MST
[2] = target: Calmodulin (not stated (human brain CaM or recombinant bovine CaM bought)) (UniProt P0DP23); experiment: SPR

Sequence of Full-length recombinant human neurogranin with a His-tag at the N-terminus (Q92686 whole entry): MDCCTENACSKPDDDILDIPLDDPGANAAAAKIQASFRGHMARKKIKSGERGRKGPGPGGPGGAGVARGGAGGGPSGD

**Q.** “Full-length recombinant human neurogranin with a His-tag at the N-terminus (from UniProt Q92686) (natural protein)” was tested. Which Kd [1] did it give?
**A.** 890 nM

**Q.** How did the Kd [2] turn out when “IQ-motif containing peptide of neurogranin (Ng 27-50) (from UniProt Q92686 27-50)” was run?
**A.** 14000 nM

**Q.** “Peptide corresponding to the CaM-binding region of CaMKIIα (CaMKII 290-309) (from UniProt Q9UQM7 290-309)” was tested. Which Kd [1] did it give?
**A.** 190 nM
